Square brackets hold non-standard residues; d marks the D form. dNle = CCCC[C@@H](N)C(=O)O
Molecular target: Aβ42 (UniProt P05067 672-713)
Assay: cell-based or functional assay

Aβ42, sequence (P05067 672-713 limits assumed): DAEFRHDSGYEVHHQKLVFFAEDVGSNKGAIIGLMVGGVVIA

Binder	% inhibition of fibril formation (ThT), AP:Aβ42 1:1	% inhibition of fibril formation (ThT), AP:Aβ42 1:10	% inhibition of fibril formation (ThT), AP:Aβ42 1:100
Ac-RGE[dNle]N[dY]F[dW]MNEYYGW[dT]M[dN]M[dC]RGK-NH2 (SMILES CCCC[C@@H](NC(=O)[C@H](CCC(=O)O)NC(=O)CNC(=O)[C@H](CCCNC(=N)N)NC(C)=O)C(=O)N[C@@H](CC(N)=O)C(=O)N[C@H](Cc1ccc(O)cc1)C(=O)N[C@@H](Cc1ccccc1)C(=O)N[C@H](Cc1c[nH]c2ccccc12)C(=O)N[C@@H](CCSC)C(=O)N[C@@H](CC(N)=O)C(=O)N[C@@H](CCC(=O)O)C(=O)N[C@@H](Cc1ccc(O)cc1)C(=O)N[C@@H](Cc1ccc(O)cc1)C(=O)NCC(=O)N[C@@H](Cc1c[nH]c2ccccc12)C(=O)N[C@@H](C(=O)N[C@@H](CCSC)C(=O)N[C@H](CC(N)=O)C(=O)N[C@@H](CCSC)C(=O)N[C@H](CS)C(=O)N[C@@H](CCCNC(=N)N)C(=O)NCC(=O)N[C@@H](CCCCN)C(N)=O)[C@H](C)O) [AP534m]	40.2%	11.2%	0%
Ac-RGE[dNle]N[dY]F[dW]MNEYYGW[dT]M[dN]M[dC]RGK-NH2 (also: disulfide-linked homodimer via Cys20) [AP534d]	100%	92.2%	51.3%
Ac-RGE[dY]N[dC]F[dW]MNEYYGW[dT]M[dN]M[dR]MGK-NH2 (SMILES CSCC[C@H](NC(=O)[C@@H](CCCNC(=N)N)NC(=O)[C@H](CCSC)NC(=O)[C@@H](CC(N)=O)NC(=O)[C@H](CCSC)NC(=O)[C@H](NC(=O)[C@H](Cc1c[nH]c2ccccc12)NC(=O)CNC(=O)[C@H](Cc1ccc(O)cc1)NC(=O)[C@H](Cc1ccc(O)cc1)NC(=O)[C@H](CCC(=O)O)NC(=O)[C@H](CC(N)=O)NC(=O)[C@H](CCSC)NC(=O)[C@@H](Cc1c[nH]c2ccccc12)NC(=O)[C@H](Cc1ccccc1)NC(=O)[C@@H](CS)NC(=O)[C@H](CC(N)=O)NC(=O)[C@@H](Cc1ccc(O)cc1)NC(=O)[C@H](CCC(=O)O)NC(=O)CNC(=O)[C@H](CCCNC(=N)N)NC(C)=O)[C@H](C)O)C(=O)NCC(=O)N[C@@H](CCCCN)C(N)=O) [AP535m]	62.3%	31.3%	0%
Ac-RGE[dY]N[dC]F[dW]MNEYYGW[dT]M[dN]M[dR]MGK-NH2 (also: homodimer: D-Cys6 disulfide-bonded to D-Cys6 of other copy) [AP535d]	100%	98.2%	53.7%
Ac-RGE[dL]N[dY]F[dW]MNEYYGW[dT]C[dN]M[dR]MGK-NH2 (SMILES CSCC[C@H](NC(=O)[C@@H](CCCNC(=N)N)NC(=O)[C@H](CCSC)NC(=O)[C@@H](CC(N)=O)NC(=O)[C@H](CS)NC(=O)[C@H](NC(=O)[C@H](Cc1c[nH]c2ccccc12)NC(=O)CNC(=O)[C@H](Cc1ccc(O)cc1)NC(=O)[C@H](Cc1ccc(O)cc1)NC(=O)[C@H](CCC(=O)O)NC(=O)[C@H](CC(N)=O)NC(=O)[C@H](CCSC)NC(=O)[C@@H](Cc1c[nH]c2ccccc12)NC(=O)[C@H](Cc1ccccc1)NC(=O)[C@@H](Cc1ccc(O)cc1)NC(=O)[C@H](CC(N)=O)NC(=O)[C@@H](CC(C)C)NC(=O)[C@H](CCC(=O)O)NC(=O)CNC(=O)[C@H](CCCNC(=N)N)NC(C)=O)[C@H](C)O)C(=O)NCC(=O)N[C@@H](CCCCN)C(N)=O) [AP536m]	74.1%	21.4%	0%
Ac-RGE[dL]N[dY]F[dW]MNEYYGW[dT]C[dN]M[dR]MGK-NH2 (also: homodimer: Cys17 disulfide-bonded to Cys17 of other copy) [AP536d]	100%	85.2%	43.1%
Ac-RGE[dL]N[dY]F[dW]MNECYGW[dT]M[dN]M[dR]MGK-NH2 (SMILES CSCC[C@H](NC(=O)[C@@H](CCCNC(=N)N)NC(=O)[C@H](CCSC)NC(=O)[C@@H](CC(N)=O)NC(=O)[C@H](CCSC)NC(=O)[C@H](NC(=O)[C@H](Cc1c[nH]c2ccccc12)NC(=O)CNC(=O)[C@H](Cc1ccc(O)cc1)NC(=O)[C@H](CS)NC(=O)[C@H](CCC(=O)O)NC(=O)[C@H](CC(N)=O)NC(=O)[C@H](CCSC)NC(=O)[C@@H](Cc1c[nH]c2ccccc12)NC(=O)[C@H](Cc1ccccc1)NC(=O)[C@@H](Cc1ccc(O)cc1)NC(=O)[C@H](CC(N)=O)NC(=O)[C@@H](CC(C)C)NC(=O)[C@H](CCC(=O)O)NC(=O)CNC(=O)[C@H](CCCNC(=N)N)NC(C)=O)[C@H](C)O)C(=O)NCC(=O)N[C@@H](CCCCN)C(N)=O) [AP537m]	54.2%	0%	0%
Ac-RGE[dL]N[dY]F[dW]MNECYGW[dT]M[dN]M[dR]MGK-NH2 (also: homodimer: Cys12 disulfide-bonded to Cys12 of other copy) [AP537d]	90.2%	82.3%	72%
Ac-RGN[dW]N[dE]S[dK]MNEYYGW[dM]L[dM]C[dT]MGR-NH2 (also: disulfide-linked homodimer via Cys19) [AP501d]	90%	81.4%	48.2%
Ac-RGN[dW]N[dE]S[dK]M[dN][dE][dY][dY]GW[dM]L[dM]C[dT]MGR-NH2 (SMILES CSCC[C@H](NC(=O)[C@@H](CCCCN)NC(=O)[C@H](CO)NC(=O)[C@@H](CCC(=O)O)NC(=O)[C@H](CC(N)=O)NC(=O)[C@@H](Cc1c[nH]c2ccccc12)NC(=O)[C@H](CC(N)=O)NC(=O)CNC(=O)[C@H](CCCNC(=N)N)NC(C)=O)C(=O)N[C@H](CC(N)=O)C(=O)N[C@H](CCC(=O)O)C(=O)N[C@H](Cc1ccc(O)cc1)C(=O)N[C@H](Cc1ccc(O)cc1)C(=O)NCC(=O)N[C@@H](Cc1c[nH]c2ccccc12)C(=O)N[C@H](CCSC)C(=O)N[C@@H](CC(C)C)C(=O)N[C@H](CCSC)C(=O)N[C@@H](CS)C(=O)N[C@@H](C(=O)N[C@@H](CCSC)C(=O)NCC(=O)N[C@@H](CCCNC(=N)N)C(N)=O)[C@H](C)O) [AP502m]	23.8%	0%	0%
Ac-RGN[dW]N[dE]S[dK]M[dN][dE][dY][dY]GW[dM]L[dM]C[dT]MGR-NH2 (also: disulfide-linked homodimer via Cys19) [AP502d]	100%	88.4%	47.1%
Ac-RGN[dW]N[dE]S[dK]MNEYYGW[dM]L[dM]T[dC]MGR-NH2 (SMILES CSCC[C@H](NC(=O)[C@@H](CCCCN)NC(=O)[C@H](CO)NC(=O)[C@@H](CCC(=O)O)NC(=O)[C@H](CC(N)=O)NC(=O)[C@@H](Cc1c[nH]c2ccccc12)NC(=O)[C@H](CC(N)=O)NC(=O)CNC(=O)[C@H](CCCNC(=N)N)NC(C)=O)C(=O)N[C@@H](CC(N)=O)C(=O)N[C@@H](CCC(=O)O)C(=O)N[C@@H](Cc1ccc(O)cc1)C(=O)N[C@@H](Cc1ccc(O)cc1)C(=O)NCC(=O)N[C@@H](Cc1c[nH]c2ccccc12)C(=O)N[C@H](CCSC)C(=O)N[C@@H](CC(C)C)C(=O)N[C@H](CCSC)C(=O)N[C@H](C(=O)N[C@H](CS)C(=O)N[C@@H](CCSC)C(=O)NCC(=O)N[C@@H](CCCNC(=N)N)C(N)=O)[C@@H](C)O) [AP503m]	61.8%	16.2%	0%
Ac-RGN[dW]N[dE]S[dK]MNEYYGW[dM]L[dM]T[dC]MGR-NH2 (also: disulfide-linked homodimer (Cys20 to Cys20 of other copy), disulfide at 20, other end not in the chain) [AP503d]	100%	100%	70.1%
Ac-RGN[dC]N[dE]S[dK]MNEYYGW[dM]L[dM]L[dT]MGR-NH2 (SMILES CSCC[C@H](NC(=O)[C@@H](CCCCN)NC(=O)[C@H](CO)NC(=O)[C@@H](CCC(=O)O)NC(=O)[C@H](CC(N)=O)NC(=O)[C@@H](CS)NC(=O)[C@H](CC(N)=O)NC(=O)CNC(=O)[C@H](CCCNC(=N)N)NC(C)=O)C(=O)N[C@@H](CC(N)=O)C(=O)N[C@@H](CCC(=O)O)C(=O)N[C@@H](Cc1ccc(O)cc1)C(=O)N[C@@H](Cc1ccc(O)cc1)C(=O)NCC(=O)N[C@@H](Cc1c[nH]c2ccccc12)C(=O)N[C@H](CCSC)C(=O)N[C@@H](CC(C)C)C(=O)N[C@H](CCSC)C(=O)N[C@@H](CC(C)C)C(=O)N[C@@H](C(=O)N[C@@H](CCSC)C(=O)NCC(=O)N[C@@H](CCCNC(=N)N)C(N)=O)[C@H](C)O) [AP504m]	30%	19.2%	0%
Ac-RGN[dC]N[dE]S[dK]MNEYYGW[dM]L[dM]L[dT]MGR-NH2 (also: disulfide-linked homodimer (Cys4 to Cys4 of other copy), disulfide at 4, other end not in the chain) [AP504d]	100%	100%	64.3%

Reference: patent US20230048960A1 (University of Washington, published 2023)
